In publication PMC9015746:

Columns and labels:
[1] = biological target: Bluetongue virus core protein VP7 (in the purified BTV-1 virion) (bluetongue virus BTV-1); experiment: cryo-EM structure
[2] = biological target: Bluetongue virus membrane penetration protein VP5 (in the purified BTV-1 virion) (bluetongue virus BTV-1); experiment: cryo-EM structure
[3] = biological target: purified wild-type VP5 protein (bluetongue virus BTV-1); experiment: SEC

## Bluetongue virus core protein VP7 (in the purified BTV-1 virion) (natural protein)
[1]
  stoichiometry N: 3

## Bluetongue virus membrane penetration protein VP5 (in the purified BTV-1 virion) (natural protein)
[2]
  stoichiometry N: 3

## purified wild-type VP5 protein (natural protein)
[3]
  stoichiometry N: 3
